{
  "source": "paper PMC9971246",
  "about": "“The activation mechanism and antibody binding mode for orphan GPR20” (Cell Discovery, 2023)",
  "molecular_target": "T1, N-terminal BRIL-fused wild-type human GPR20 (human, UniProt Q99678)",
  "T1 construct": "human GPR20, wild type, UniProt Q99678; codon-optimized gene in pFastBac1; Construct order: haemagglutinin signal peptide, Flag tag, BRIL, GPR20, HRV 3C protease site, 10x His; No cleavage with HRV 3C is described; BRIL is written as a carrier under tags, not as a part; also called WT GPR20; ligand-free GPR20; source: Trichuplusia ni Hi5 insect cells (baculovirus), co-expressed with DNGαi and …",
  "T1 sequence (Q99678 whole entry, the tested form may be a part)": "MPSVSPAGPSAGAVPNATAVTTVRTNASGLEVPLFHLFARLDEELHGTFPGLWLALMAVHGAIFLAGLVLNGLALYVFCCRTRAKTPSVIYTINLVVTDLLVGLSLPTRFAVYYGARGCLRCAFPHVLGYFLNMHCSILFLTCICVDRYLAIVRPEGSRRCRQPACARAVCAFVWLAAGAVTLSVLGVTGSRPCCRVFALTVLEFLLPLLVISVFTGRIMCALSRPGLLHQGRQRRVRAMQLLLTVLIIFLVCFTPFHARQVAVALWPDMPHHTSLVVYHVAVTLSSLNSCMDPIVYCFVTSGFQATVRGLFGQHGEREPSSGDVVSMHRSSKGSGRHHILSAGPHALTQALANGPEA",
  "assay": "cryo-EM structure; GPR20-Gi-Fab046 complex, pair of Fab046 and GPR20; TALON eluate (GPR20-Gi complex) mixed with purified Fab046 1:1.5 for 6 h, SEC in 20 mM HEPES pH 7.5, 100 mM NaCl, LMNG/GDN/CHS, 100 μM TCEP; 3.22 Å",
  "conditions": "both partners purified",
  "data": [
    {"binder": "Fab046, Fab fragment of the anti-GPR20 antibody Ab046 (Fab, V domains shown, modelled in the deposited structures PDB 8HS2 (VH + CH1) and PDB 8HSC (VH); modelled in the deposited structures PDB 8HS2 (intact light chain) and PDB 8HSC (VL); also called IgG046; source: Trichuplusia ni Hi5 insect cells (baculovirus, pFastBacDual), from the supernatant, purified (Ni-NTA, SEC)) VH: QVQLQQSGAELAKPGSSVKISCKASGYTFTSYYISWIKQTTGQGLKYIGFINPGSGHTNYNEKFKGKATLTVDKSSSTAFMQLSSLTPDDSAIYYCARGAGGFLRIITKFDYWGQGVMVTVSS VL: DTVLTQSPALAVSLGQRVTISCRASKSVSTYIHWYQQRSGQQPKLLIYSASNLESGVPSRFSGSGSGTDFTLTIDPVEPDDIANYYCQQINELPYTFGAGTKLELK", "values": [
      {"measurement": "binding result", "value": "binds"}
    ]}
  ]
}
